Data on 2 molecules can be found in publication PMC11835246, “Capsid transfer of the retrotransposon Copia controls structural synaptic plasticity in Drosophila” (PLOS Biology, 2025).

The labels stand for the following.
B1: Copia^GagΔNC (domain or fragment)
chain: not shown
notes: Copia retrotransposon Gag, Drosophila, capsid (CA) region only; residue H186 mutated to a stop codon in the pSMT3_His6-SUMO-Copia^Gag+PR plasmid, so the chain ends at residue 185 and lacks the NC (Zn-finger) domain; also called Copia^gag-ΔNC variant; not shown: His6-SUMO, N-terminal, cleaved
B2: Copia^Gag capsid protein (wild type), auto-processed from His6-SUMO-Copia^Gag+PR (natural protein)
chain: not shown
notes: Copia retrotransposon Gag (capsid CA, residues 1-186, and nucleocapsid NC, residues 186-270), Drosophila; product of auto-processing of the short spliced form Copia^Gag+PR, whose protease part is cut off in E. coli; Limits 1-270 put together from the stated CA (1-186) and NC (186-270) domains; the cleavage site between Gag and PR is not otherwise stated; Carries co-purified RNA unless this is …

The target of data set [1] is B2. Description: SEC; Superose 6 Increase 10/300 GL after overnight Ulp1 digestion; 25 mM HEPES pH 7.4, 150 mM NaCl, 10% glycerol, 100 uM ZnCl2, 500 mM imidazole, 2 mM 2-mercaptoethanol; assembled capsids elute at fraction 7, unassembled protein at fractions 24 to 26. The note with it: both partners purified. (In general: SEC sorts molecules by how far they enter the pores of the column.)

Data set [2] concerns the molecule itself. Description: negative-stain EM; purified Copia^Gag after removal of His6-SUMO, with co-purified RNA, 0.8 mg/ml, 1% uranyl acetate; capsid-like particles of 30 nm to more than 120 nm.

Take B1: the binding result in data set [1] is recorded as “binds”.
For the molecule B2, in data set [2], the binding result was “binds”.
